Reference: publication PMC2645002

Target: miniCD4 CD4M48, biotinylated at Lys11
Experiment: pull-down

With “HIV-1 envelope glycoprotein gp120SF162 (monomer) (natural protein)” the % of recovery was 55.8%.
